Experimental data as given in PMC6107761.

Tests used:
Details in all cases: remark: other sources report otherwise
[1] = biological target: T1, human wild type calcium and integrin binding protein 2 (CIB2) (human), O75838; experiment: native gel or EMSA; Ferguson plot: non-denaturing continuous gels at 10, 12, 15% acrylamide, BSA as standard; 20 μM CIB2 with EGTA, Mg2+ or Ca2+ + Mg2+, 1 mM DTT, room temperature
T1 chain: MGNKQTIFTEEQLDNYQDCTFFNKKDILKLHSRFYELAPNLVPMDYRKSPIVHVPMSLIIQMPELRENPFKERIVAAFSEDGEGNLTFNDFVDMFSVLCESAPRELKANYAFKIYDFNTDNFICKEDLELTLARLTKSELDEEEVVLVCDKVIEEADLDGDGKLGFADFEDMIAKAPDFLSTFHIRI

[2] = biological target: T1, human wild type calcium and integrin …; experiment: dynamic light scattering; Zetasizer Nano-S, 37°C; samples immediately after SEC in 20 mM Tris-HCl pH 7.5, 150 mM KCl, 1 mM DTT with 3 mM EGTA or 2 mM EGTA + 3 mM Mg2+ or 3 mM Mg2+ + 2 mM Ca2+
[3] = biological target: T1, human wild type calcium and integrin …; experiment: SEC; analytical SEC, Superose 12 10/300GL; 20 mM Tris pH 7.5, 150 mM KCl, 1 mM DTT with 3 mM EGTA or 2 mM EGTA + 3 mM Mg2+ or 3 mM Mg2+ + 2 mM Ca2+; WT 100 μM, E64D 70 μM; MW from a calibration plot

Measured: stoichiometry N

B1: human wild type calcium and integrin binding protein 2 (CIB2), O75838-1 1-187 (natural protein)
chain: MGNKQTIFTEEQLDNYQDCTFFNKKDILKLHSRFYELAPNLVPMDYRKSPIVHVPMSLIIQMPELRENPFKERIVAAFSEDGEGNLTFNDFVDMFSVLCESAPRELKANYAFKIYDFNTDNFICKEDLELTLARLTKSELDEEEVVLVCDKVIEEADLDGDGKLGFADFEDMIAKAPDFLSTFHIRI
2: all assays above
